{"source": "patent US20250188136A1", "about": "“AV3 MUTANT POLYPEPTIDES FOR PEST CONTROL” (Vestaron Corporation, priority 2021, published 2025)", "key": {"[1]": {"test_system": "houseflies", "experiment": "Housefly injection assay (knock-down)", "type": "in vivo, Musca domestica", "method": "An exemplary housefly injection bioassay is as follows: conditioned media is serially diluted to generate full dose-response curves from the housefly injection bioassay. Before injection, adult houseflies (Musca domestica) are immobilized with CO2, and 12-18 mg houseflies are selected for injection. A microapplicator, loaded with a 1 cc syringe and 30-gauge needle, is used to inject 0.5 μL per fly, doses of serially diluted conditioned media samples into houseflies through the body wall of the dorsal thorax. The injected houseflies are placed into closed containers with moist filter paper and breathing holes on the lids, and they are examined by knock-down ratio or by mortality scoring at 24 hours post-injection. Normalized yields are calculated. Peptide yield means the peptide concentration in the conditioned media in units of mg/L. However, peptide yields are not always sufficient to accurately compare the strain production rate. […] A culture with a high cell density may produce a higher concentration of the peptide in the media, even though the peptide production rate of the strain is lower than another strain which has a higher production rate. Accordingly, the term “normalized yield” is created by dividing the peptide yield with the cell density in the corresponding culture and this allows a better comparison of the peptide production rate between strains. The cell density is represented by the light absorbance at 600 nm with a unit of “A” (Absorbance unit).\nA housefly injection assay was performed to determine the activity of the new mutants. Adult houseflies were immobilized with CO2 for 10 minutes, and then transferred to a CO2 pan to keep immobilized. Flies with weight between 12-20 mg were picked for injection. The new mutants and Av3b control were diluted in water to proper doses for injection. Next, a 0.5 μL peptide solution was injected into each housefly at the dorsal thorax using a hand-microapplicator with 1 cc all-glass syringe with 30 gauge straight needle. The injected flies were then transferred to a 2 oz. transparent portion container with a wet #4 filter paper. Fly knock-down was assessed at 5-hours post-injection. The activity of a given new mutant was then normalized to the activity of the Av3b production strain (control), using the fly knock-down score at 5 hours."}, "[2]": {"experiment": "Stability of purified peptide spiked into Av3b fermentation beer (rpHPLC)", "type": "physicochemical", "method": "To determine the stability of the new mutants, Av3bM19, Av3bM23, Av3bM24, Av3bM25, Av3bM27, and Av3bM28 were purified and incubated in Av3b fermentation beer. The mutants were purified by cation-exchange chromatography using a GE SP-Sephadex C-25 column. The column was first calibrated with 30 mM sodium citrate buffer at pH 3.0. Then, the culture supernatant containing the secreted mutant peptide was loaded into the column to let the mutant peptide bind to the resin. The column was then washed with 30 mM sodium citrate buffer, pH 3.0, followed by washing with 30 mM sodium acetate, pH 4.0. Next, the bound mutant peptide was eluted by 1 M or 2 M NaCl with 30 mM sodium acetate, pH 4.0. The elution was then concentrated and buffer-exchanged to 30 mM sodium acetate, pH 4.0 using a 1 kD cutoff spin concentrator.\nAfter purification, each of the mutants, Av3bM19, Av3bM23, Av3bM24, Av3bM25, Av3bM27, and Av3bM28, were evaluated for stability by spiking them into Av3b strain fermentation beer at pH 6.5. As a negative control, Av3b was evaluated in a pH 4.0 buffer. As a positive control, purified Av3b was evaluated by spiking into the same Av3b fermentation beer at pH 6.5. All stability experiments were performed at room temperature. […] The amount of peptide remaining relative to the beginning was determined by normalizing the peak area at different time to the one at 0 hour for each treatment. The degradation trend is visualized by the bar graph of the relative remaining peptide amount trend."}, "[3]": {"test_system": "Spodoptera frugiperda", "experiment": "Lepidoptera injection assay, fall armyworm (FAW)", "type": "in vivo", "conditions": "third instar larva, 2 μL injection, scored at 24-hours post-injection", "method": "An injection assay was performed on Helicoverpa zea (corn earworm or “CEW”) and Spodoptera frugiperda (fall armyworm or “FAW”). Injections comprised a given Av3b mutant peptide combined with water to arrive at the planned dose. The Av3b mutants included Av3bM24; Av3bM165; Av3bM103; and Av3bM170. Av3b was used as a control.\nInsects were reared on an artificial diet prepared from General Purpose Lepidoptera diet (Frontier Scientific, Newark, DE 19713, product No. F9772) according to the manufacturer's instructions. To perform the insect injection bioassay, 5 mL of hot diet was dispensed into the well of a rearing tray (Bio-Service Inc., Bio-RT-32), with 8 wells per injection treatment. The hot diet was then allowed to cool and solidify. Next, third instar larva were incubated on ice in order to immobilize them. Injections were prepared on a hand-microapplicator with injection solution (>100 μL) in 1-cc all-glass syringe having a 30 gauge straight needle. Air bubbles were removed from the syringe, and the syringe was set it up on the microapplicator. Injection volume was adjusted in the microapplicator at 2 μL.\nTo inject the larva, the insects were picked up and positioned close to the injection needle. The needle was allowed to penetrate the cuticle of the third pro-leg of the larva. The injection knob of the microapplicator was then rotated to inject a 2 μL solution into hemolymph from the third pro-leg. After injection the larva maintained on the needle for a few seconds to make sure the injected solution was absorbed. Then, the larva were gently removed from the needle and placed into the wells of prepared tray, along with 5 mL of solidified diet per well. Finally, the tray was sealed with vent covers.\nInjected larva were incubated at 28° C. in an insect incubator, and scored at 24-hours post-injection based on their condition. Insect conditions were categorized as follows: alive (walking, eating, normal behavior); affected (showing toxic symptoms, such as tremors, writhing, unbalanced gait, or a combination thereof), knockdown (paralyzed albeit able to move with gentle poke); and dead (unmoving, discoloration, or a combination thereof)."}, "[4]": {"experiment": "Stability of Av3b mutants in insect gut extract", "type": "in vitro ADME, Helicoverpa zea", "conditions": "H. zea gut extract digestion, room temperature", "method": "To test the stability of the Av3b mutants in the gut enzymes of a lepidopteran pest, the gut extract were prepared from Helicoverpa zea (Corn Earworm or “CEW”). Corn Earworm insects were obtained commercially from Benzon Research (Carlisle, PA) as eggs. Hatched larvae were raised on artificial diet until ⅘^th instar (20 mm long) before guts were isolated. Before gut extraction, larvae were anesthetized using CO2. The larva was then pinned on the dissection plate at both the head and the tail. Using dissection scissors, the cuticle was nicked. The dissection scissors were then inserted into the nick and the […] along the insect. The cuticle was then carefully pulled back and pinned open to reveal the digestive track. Using DI water, the insect was thoroughly rinsed to remove hemolymph.\nAfter the insect guts were extracted from the larva, they were spun at 15000 rpm for 5 minutes. The resulting supernatant is the “insect gut extract” that was used to determine peptide stability. Av3b mutant peptide was mixed with the gut extract to […] of 2 μg/μL, and incubated at room temperature. At time points between 0-100 hours, 6 μL of a given sample was mixed with 93 μL dH2O followed by the addition of 1 μL of a 2% trifluoracetic acid solution to stop the reaction. The sample was then analyzed by rpHPLC to determine the peptide loss during the gut extract treatment."}}, "note": "“Also recorded” adds a separate entry of the source. Ends that are not written are not given here."}
{"sequence": "KSCCPCYWGGCPWGQNCYPEGCDGPK (ends and bridges not checked; cysteine pairing not given here) [Av3bM24]", "values": [{"measurement": "housefly knock-down / insecticidal activity relative to Av3b", "setting": "[1]; knock-down at 5 hours post-injection", "value": "without a concomitant reduction in housefly knock-down activity; also recorded: insecticidal activity"}, {"measurement": "Activity", "setting": "[1]; knock-down at 5 hours post-injection normalized to Av3b, Yes = insecticidal activity maintained", "value": "Yes"}, {"measurement": "half-degradation time", "setting": "[2]; Av3b production fermentation beer pH 6.5, room temperature (Example 11, FIG. 37)", "value": 652, "unit": "h"}, {"measurement": "peptide remaining", "setting": "[2]; fermentation beer pH 6.5, room temperature, 248 hours, HPLC peak area relative to starting amount", "value": 84, "unit": "%"}, {"measurement": "resistance to fermentation beer protease cleavage compared to Av3b", "setting": "[2]; spiked into Av3b fermentation beer pH 6.5, room temperature", "value": "greater resistance to yeast fermentation beer protease cleavage; also recorded: improved resistance to fermentation beer cleavage; also recorded: resist the degradation in Av3b fermentation beer"}, {"measurement": "KD50 FAW", "setting": "[3]", "value": 949, "unit": "pmol/g"}, {"measurement": "resistance to degradation in gut extract", "setting": "[4]", "value": "most resistant to degradation"}]}
